According to patent publication US20240041988A1, “Use of elapidae postsynaptic neurotoxin in the treatment of over expression of inflammatory cytokines related diseases” (priority 2020, published 2024):

B1: SEQ ID No1 (protein, listed as Naja atra)
chain: LECHNQQSSQTPTTTGCSGGETNCYKKRWRDHRGYRTERGCGCPSVKNGIEINCCTTDRCNN
B2: SEQ ID No9 (protein)
chain: TKCYKTGDRIISEACPPGQDLCYMKTWCDVFCGTRGRVIELGCTATCPTVKPHEQITCCSTDNCNPHPKMKQ
modifications: Ophiophagus hannah
B3: SEQ ID No20 (protein, listed as Bungarus fasclatus)
chain: RICLNQQQSTPEDQPTNGQCYIKTDCQNKTWNTHRGSRTDRGCGCPKVKPGINLRCCKTDKCNE

Assays:
[1] = tested on: interleukin 1 beta (IL-1 beta); assay: Carrageenan pleural inflammation rat model, serum IL-1 beta by ELISA; assay type: in vivo, Wistar rats; settings: rat tail vein blood 6 hours after carrageenan, n = 10, inflammation group 52.40 ± 6.74, saline control 35.20 ± 4.78
Procedure: (§1) 140 Wistar rats (200-240 g) are randomly divided into 14 groups, and each group is 10. The preparation method comprises the following steps: (group 1) only receiving sterile normal saline ([…]) (control group); (group 2) carrageenan inflammation modeling+oral normal saline 10 ml/kg (inflammation group); (Group 3) Carrageenan Inflammation modeling+oral Naja atra postsynaptic neurotoxin (SEQ ID NO 1) 200 μg/kg prepared into a liquid state and continuous intragastric administration performed; (Group 4) Carrageenan Inflammation modeling+oral Naja atra postsynaptic neurotoxin (SEQ ID NO 1) 800 μg/kg prepared into a liquid state and continuous intragastric administration performed. (Group 5-14) The postsynaptic neurotoxin of Bungarus multicinctus, Ophiophagus Hannah, Naja kaouthia, Dendroaspis polylepis, Bungarus fasclatus, through the same administration model, that means carrageenan inflammation modeling+oral administration of 200 μg/kg and 800 μg/kg two doses respectively and continuously intragastric administration, so that the rat is divided into 14 groups.
(§2) Except for the […], 0.1 ml of sterile normal saline+carrageenan (CG, 1%) is injected into the rest 13 groups through pleural cavities for inflammation modeling. The preparation method comprises the following steps: 1 hour before molding, orally administration of normal saline or different types of postsynaptic neurotoxin with different doses respectively in each group, 6 hours after the carrageenan injection, collecting rat tail vein blood to detect the concentration of IL-1 beta and TNF-alpha.
(§3) The serum of the collected rat tail vein blood is separated and collected by using a commercial ELISA assay kit, and biochemical evaluation is carried out on the concentration of the tumor necrosis factor alpha (TN F-alpha) and interleukin 1 beta (IL-1 beta) according to the instructions of experimental step of the kit's manufacturer.

[2] = tested on: tumor necrosis factor alpha (TNF-alpha); assay: Carrageenan pleural inflammation rat model, serum TNF-alpha by ELISA; assay type: in vivo, Wistar rats; settings: rat tail vein blood 6 hours after carrageenan, n = 10, inflammation group 61.30 ± 7.86, saline control 42.70 ± 5.93
Procedure: as §1, §2, §3

[3] = 200 μg/kg oral (intragastric) 1 hour before carrageenan
[4] = 800 μg/kg oral (intragastric) 1 hour before carrageenan

| Molecule | IL-1β blood average concentration (x ± s) [1, 3] | IL-1β blood average concentration (x ± s) [1, 4] [ng/L] | TNF-a blood average concentration (x ± s) [2, 3] [ng/L] | TNF-a blood average concentration (x ± s) [2, 4] [ng/L] |
| --- | --- | --- | --- | --- |
| B1 | 45.40 ± 4.95 ng/L | 41.30 ± 4.31 | 53.70 ± 6.32 | 50.60 ± 5.89 |
| B2 | 44.50 ± 4.97 ng/L | 41.70 ± 4.23 | 54.80 ± 5.01 | 51.20 ± 5.76 |
| B3 | 44.10 ± 4.32 *^ ng/L | 40.80 ± 3.78 | 52.82 ± 6.55 | 47.81 ± 5.72 |
